Drawing on patent US20170056521A1, this text covers OD450 for 1 molecule.

This experiment concerns the target human HLA-A2 (human). Nature of the experiment: single colony ELISA; soluble scFv supernatant on coated HLA-A2 (0.5 µg/well), anti-E-tag-HRP detection.

B1: scFv clone 3E10 (scFv)
scFv: DIQMTQSPSSLSASVGDRVTITCRASQDVFFFVAWYQQKPGKAPKLLIYGPPGLYSGVPSRFSGSGSGTDFTLTISSLQPEDFATYYCQQYFSFPITFGQGTKVEIKRGGGGSIEGRSGGGGSEVQLVESGGGLVQPGGSLRLSCAASGFTISNGGIHWVRQAPGKGLEWVASIWPSGGYTSYADSVKGRFTISADTSKNTAYLQMNSLRAEDTAVYYCARFGVNYHGIMDYWGQGTLVTVSS
B1 yielded an OD450 of 1.3 OD450.
